Test results as given in article PMC9876794 (2022).

Legend:
[1] = biological target: T1, SARS-CoV-2 spike RBD (WT) (Severe acute respiratory syndrome …, UniProt P0DTC2); assay: BLI
[2] = biological target: T1, SARS-CoV-2 spike RBD (WT); assay: ELISA; design: unit not given here

B1: D053 (antibody, V domains shown)
VH: EVQLVESGGGLVKPGGSLRLSCAASGFTFSNAWMSWVRQAPGKGLEWIGRIKSNTDGGTIDYAAPVKGRFTISRDDSKNTLYLQMNSLKTEDTAVYYCTTDGAFFVVADPFDYWGQGTLVTVSS
VL: DIQMTQSPSSLSASVGDRVTITCRASQSMTNYLNWYQQKPGKAPELLIYGVSSLQSGVPSRFSGSGSGTDFTLTISSLQPEDFATYYCQQSYRTPRTFGQGTKVEIK
- Kd [1]: 2420 nM
- binding score [2]: 3050

B2: C2717 (antibody, V domains shown)
VH: EVQLVESGGGLVQPGGSLRLSCAASGFTVSSNYMSWVRQAPGKGLEWVSVIYSGGSTYYADSVKGRFTISRDNSKNTLYLQMNSLRAEDTAVYYCARELYSSSSYFDYWGQGTLVTVSS
VL: QSVLTQPPSVSGAPGQRVTISCTGSSSNIGAGYDVHWYQQLPGTAPKLLIYGNSNRPSGVPDRFSGSKSGTSASLAITGLQAEDEADYYCQSYDSSLSGSGVFGGGTKLTVL
- Kd [1]: 153 nM
- binding score [2]: 124

B3: D126 (antibody, V domains shown)
VH: QVQLVQSGAEVKKPGASVKVSCKASGYTFTSYGISWVRQAPGQGLEWMGWISAYNGNTNYAQKLQGRVTMTTDTSTSTAYMELRSLRSDDTAVYYCARDDTSGWYTGDAFDIWGQGTMVTVSS
VL: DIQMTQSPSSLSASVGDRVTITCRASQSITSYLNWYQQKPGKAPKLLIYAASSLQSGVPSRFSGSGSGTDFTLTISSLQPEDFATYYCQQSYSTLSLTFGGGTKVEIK
- Kd [1]: 16.7 nM
- binding score [2]: 973

B4: C2701 (antibody, V domains shown)
VH: EVQLVESGGGLVQPGGSLRLSCAASGFTVSSNYMSWVRQAPGKGLEWVSVIYSGGSTYYADSVKGRFTISRHNSKNTLYLQMNSLRAEDTAVYYCARDYGDLFFDYWGQGTTVTVSS
VL: not shown
- Kd [1]: 88.4 nM
- binding score [2]: 170

B5: C2712 (antibody, V domains shown)
VH: EVQLVESGGGLVQPGGSLRLSCVASGFTFSSDDIHWVRQATGKGLEWVSGIGTAGDTYYAGSVKGRFTISRENAKNSLYLQMKSLRAGDTAVYYCARGVQSWLRGYYYYYMDVWGKGTTVTVSS
VL: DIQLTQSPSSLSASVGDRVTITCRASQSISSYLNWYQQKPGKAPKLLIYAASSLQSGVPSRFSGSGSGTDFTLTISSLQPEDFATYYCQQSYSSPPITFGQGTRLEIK
- Kd [1]: 19.6 nM
- binding score [2]: 7.83

B6: D083 (antibody, V domains shown)
VH: EVQLVQSGAEVKKPGESLKISCKGSGYSFTSHWIGWVRQMPGKGLEWMGIIYPGDSDTRYSPSFQGQVTISADKSISTAYLQWSSLKASDTAMYYCARHIKSDLWFGEKDSWGQGTLVTVSS
VL: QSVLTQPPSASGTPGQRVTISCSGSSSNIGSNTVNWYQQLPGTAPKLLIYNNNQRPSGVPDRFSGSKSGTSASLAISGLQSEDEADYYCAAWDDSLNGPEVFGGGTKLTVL
- Kd [1]: 12.3 nM
- binding score [2]: 62.7

B7: D155 (antibody, V domains shown)
VH: QLQLQESGPGLVKPSETLSLTCTVSGGSISSSSYYWGWIRQPPGKGLEWIGSIYYSGSTYYNPSLKSRVTISVDTSKNQFSLKLSSVTAADTAVYYCARQPYYYDSSGINRAFDIWGQGTMVTVSS
VL: QSVLTQPRSVSGSPGQSVTISCTGTSSDVGGYNYVSWYQQHPGKAPKLMIYDVSKRPSGVPDRFSGSKSGNTASLTISGLQAEDEADYYCCSYAGTVVFGGGTKLTVL
- Kd [1]: 116 nM
- binding score [2]: 1000

B8: D038 (antibody, V domains shown)
VH: EVQLVQSGAEVKKPGESLKISCKGSGYSFTSYWIAWVRQMPGKGLEWMGIIYPGDSDTRYSPSFQGQVTISADKSISTAYLQWSSLKASDTAMYYCARQGYSYGYVDYWGQGTLVTVSS
VL: NFMLTQPHSVSESPGKTVTISCTRSSGSIASNYVQWYQQRPGSAPTTVIYEDNQRPSGVPDRFSGSIDSSSNSASLTISGLKTEDEADYYCQSYDSSNWVFGGGTKLTVL
- Kd [1]: 306 nM
- binding score [2]: > 10000

B9: D007 (antibody, V domains shown)
VH: QVQLVESGGGVVQPGGSLRLSCAASGFTFSSYGMHWVRQAPGKGLEWVAFIRYDGSNKYYADSVKGRFTISRDNSKNTLYLQMNSLRAEDTAVYYCAKDQYYYGSGSYSDYWGQGTLVTVSS
VL: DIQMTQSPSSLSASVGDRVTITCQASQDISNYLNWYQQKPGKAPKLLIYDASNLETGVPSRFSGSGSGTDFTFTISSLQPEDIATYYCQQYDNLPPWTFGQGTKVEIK
- Kd [1]: 6720 nM
- binding score [2]: 8280

B10: D009 (antibody, V domains shown)
VH: EVQLLESGGGLVQPGGSLRLSCAATGFTFGSYTMTWVRQAPGKGLEWVSSISVSGRRTYYAGSVQGRFTVSRDNSMNALFLQMNSLRADDTAVYYCARDAPREAYYDRTGHYIFYYGMDLWGQGTTVTVSS
VL: EIVMTQSPATLSVSPGERATLSCRASQSVSDNLAWYQQKPGQAPRLLIYGASTRAIGIPDRFTGSGSGTEFTLTISSLQSEDFAVYYCQHYNNGPSVGFGQGTRVEFK
- Kd [1]: 5440 nM
- binding score [2]: 2390
